This passage reports binding result, Kd and binding signal results from paper PMC4783296, “Structural basis underlying CAC RNA recognition by the RRM domain of dimeric RNA-binding protein RBPMS”.

In one series the target is RBPMS RRM F65A (human, UniProt Q93062 14-111, F65A). In words: ITC; ITC: 20 mM Tris-HCl pH 7.5, 100 mM NaCl, 25 C; 0.03-0.05 mM protein in cell, 0.26-0.5 mM RNA in syringe, single-site model. The note with it: protein: recombinant; tags: 6His-SUMO removed with Ulp1; single strand. On the technique in general: ITC needs no label: the signal is the heat of the interaction.
Sequence of RBPMS RRM F65A (Q93062 14-111 F65A): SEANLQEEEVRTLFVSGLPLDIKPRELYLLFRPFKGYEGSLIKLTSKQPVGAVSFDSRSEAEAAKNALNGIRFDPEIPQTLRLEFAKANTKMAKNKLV

The target in another series is RBPMS RRM K100E (human, UniProt Q93062 14-111, K100E). The series is described as above. The note with it: protein: recombinant; tags: 6His-SUMO removed with Ulp1; single strand.
Sequence of RBPMS RRM K100E (Q93062 14-111 K100E): as the sequence (Q93062 14-111 F65A) above, with A52F, K87E counted along it
The next series deals with RBPMS RRM F27A (human, UniProt Q93062 14-111, F27A). Described as above. The note with it: protein: recombinant; tags: 6His-SUMO removed with Ulp1; single strand.
Sequence of RBPMS RRM F27A (Q93062 14-111 F27A): as the sequence (Q93062 14-111 F65A) above, with F14A, A52F counted along it
The target of the next series is RBPMS RRM T103A/K104A (human, UniProt Q93062 14-111, T103A;K104A). The description is as above. The note with it: protein: recombinant; tags: 6His-SUMO removed with Ulp1; single strand.
Sequence of RBPMS RRM T103A/K104A (Q93062 14-111 T103A/K104A): as the sequence (Q93062 14-111 F65A) above, with A52F, T90A, K91A counted along it
Another series has as its target RBPMS RRM WT (human, UniProt Q93062 14-111). The experiment in a line: ITC; approaching 2:1 RRM:RNA; ITC: 20 mM Tris-HCl pH 7.5, 100 mM NaCl, 25 C; 0.03-0.05 mM protein in cell, 0.26-0.5 mM RNA in syringe, single-site model. The note with it: protein: recombinant; tags: 6His-SUMO removed with Ulp1; chain copies: 2; single strand.
A further series deals with RBPMS RRM E97A/K100A (human, UniProt Q93062 14-111, E97A;K100A). In words: ITC; Kd printed only in figure; ITC: 20 mM Tris-HCl pH 7.5, 100 mM NaCl, 25 C; 0.03-0.05 mM protein in cell, 0.26-0.5 mM RNA in syringe, single-site model. The note with it: protein: recombinant; tags: 6His-SUMO removed with Ulp1; single strand.
Sequence of RBPMS RRM E97A/K100A (Q93062 14-111 E97A/K100A): as the sequence (Q93062 14-111 F65A) above, with A52F, E84A, K87A counted along it

Sequence of RBPMS RRM WT (Q93062 14-111): as the sequence (Q93062 14-111 F65A) above, with A52F counted along it

B1: ETF1 17-nt RNA (ssRNA)
RNA: GCACUUUCAACUUCACU
As to B1, the binding result with RBPMS RRM F65A, with RBPMS RRM K100E, in the series with RBPMS RRM F27A and with RBPMS RRM T103A/K104A was “no binding” throughout. In the series with RBPMS RRM WT, the Kd was 900 nM. In addition, the binding signal with RBPMS RRM E97A/K100A was ~10 fold reduced affinity vs WT.

What is called Kd is the equilibrium constant for the complex coming apart.
